From patent US20240191188A1 (JUNO THERAPEUTICS, published 2024)

Target: T1, soluble oligomeric streptavidin mutein (oligomer of Strep-tactin, n≥3, crosslinked with sulfo-SMCC and … (Streptomyces avidinii, UniProt P22629 38-163, chemically crosslinked with sulfo-SMCC and iminothiolan))
T1 construct: Oligomers of homo-tetramers separated from monomeric and dimeric mutein by size exclusion chromatography; no single molecular weight; also called soluble oligomeric Strep-tactin; oligomeric mutein streptavidin
Assay: mixing of peptide-tagged Fab with soluble oligomeric streptavidin mutein at room temperature

B1: αCD28 Fab fragment derived from the monoclonal anti-human CD28 antibody CD28.3, heavy chain carboxy-terminally fused to the Twin-Strep-tag (monomeric) (Fab)
heavy (part 1 of 2): LQQSGAELVKPGASVRLSCKASGYTFTEYIIHWIKLRSGQGLEWIGWFYPGSNDIQYNAKFKGKATLTADKSSSTVYMELTGLTSEDSAVYFCARRDDFSGYDALPYWGQGTMVTV
heavy (part 2 of 2): not shown
light: DIQMTQSPASLSVSVGETVTITCRTNENIYSNLAWYQQKQGKSPQLLIYAATHLVEGVPSRFSGSGSGTQYSLKITSLQSEDFGNYYCQHFWGTPCTFGGGTKLEIKR
notes: Recombinantly produced in E. coli; also called anti-CD28 Fab fragment; αCD28 Fab fragment of the antibody 28.3; not shown: human kappa light chain constant domain
  binding result: binds
